The record followed here is patent US20240116985A1 (published 2024).

Starred links: 1 amine or outer side, 2 acyl side, 3 side chain; linkers in the order of their positions; H or OH if unused. Positions of bridges follow the written chain, without caps; N, C: chain ends. Non-standard residues stand in square brackets, D forms with d. Primed or numbered codes have the meaning given here. B5(10) = 2-amino-2-(pent-4-en-1-yl)hept-6-enoic acid, bis(4-pentenyl)glycine, stitching residue bearing both staples, C=CCCCC(CCCC=C)(N[*:1])C(=O)[*:2]; B5(16) = 2-amino-2-(pent-4-en-1-yl)hept-6-enoic acid = 2,2-bis(4-pentenyl)glycine (stitching residue), C=CCCCC(CCCC=C)(N[*:1])C(=O)[*:2]; B5(5) = 2,2-bis(4-pentenyl)glycine, 2-amino-2-(pent-4-en-1-yl)hept-6-enoic acid (stitching residue), C=CCCCC(CCCC=C)(N[*:1])C(=O)[*:2]; PyrS2 = (S)-3-amino-1-((pent-4-en-1-yloxy)carbonyl)pyrrolidine-3-carboxylic acid, C=CCCCOC(=O)N1CC[C@@](N[*:1])(C(=O)[*:2])C1; Bta = N[C@@H](Cc1csc2ccccc12)C(=O)O; αAllylPro = C=CC[C@@]1(C(=O)O)CCCN1; tBuAla = CC(C)(C)C[C@H](N)C(=O)O; 3Thi = N[C@@H](Cc1ccsc1)C(=O)O; Cha = N[C@@H](CC1CCCCC1)C(=O)O; S8 = C=CCCCCCC[C@](C)(N)C(=O)O

In assay [1] the target is T1, full-length beta-Catenin (Uniprot ID P35222) (Homo sapiens (Human), UniProt P35222 2-781).
T1 construct: The FP protocol says 'full-length beta-Catenin (Uniprot ID P35222)'; also called bCat; B-Catenin
T1 sequence: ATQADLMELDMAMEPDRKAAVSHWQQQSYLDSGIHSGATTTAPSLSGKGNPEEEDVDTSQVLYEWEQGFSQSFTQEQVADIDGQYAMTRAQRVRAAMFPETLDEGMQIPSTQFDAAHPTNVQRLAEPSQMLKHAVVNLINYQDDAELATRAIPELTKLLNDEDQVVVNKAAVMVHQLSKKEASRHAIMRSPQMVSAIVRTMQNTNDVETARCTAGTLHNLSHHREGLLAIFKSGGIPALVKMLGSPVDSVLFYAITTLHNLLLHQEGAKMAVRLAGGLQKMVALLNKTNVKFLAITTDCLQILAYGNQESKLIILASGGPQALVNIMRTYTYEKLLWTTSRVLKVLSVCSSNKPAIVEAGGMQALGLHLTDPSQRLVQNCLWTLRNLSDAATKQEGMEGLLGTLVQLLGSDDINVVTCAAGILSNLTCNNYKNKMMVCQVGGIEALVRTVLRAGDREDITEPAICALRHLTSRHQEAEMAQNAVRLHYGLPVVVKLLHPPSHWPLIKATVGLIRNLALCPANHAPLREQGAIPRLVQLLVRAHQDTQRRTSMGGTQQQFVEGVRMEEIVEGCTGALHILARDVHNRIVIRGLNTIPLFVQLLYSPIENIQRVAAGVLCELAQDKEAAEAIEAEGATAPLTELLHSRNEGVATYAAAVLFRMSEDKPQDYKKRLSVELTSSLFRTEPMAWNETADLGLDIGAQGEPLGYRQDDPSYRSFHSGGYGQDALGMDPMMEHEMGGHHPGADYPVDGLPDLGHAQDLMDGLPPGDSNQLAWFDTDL
Nature of the assay: fluorescence polarization competition; full-length beta-catenin + 5FAM-TCF4 10-53 probe. On the procedure:
(§1) The plate was incubated protected from light for 60 minutes at 20° C. prior to read. Reads were performed on a CLARIOstar plate reader (BMG Labtech) in duplicate, and data were fitted to a 1:1 binding model with hill slope using an in-house script. All provided concentrations are final concentrations.

The target in assay [2] is T2, B-cat-Halo (beta-catenin HaloTag fusion expressed in HEK293 cells) (UniProt P35222 1-781).
T2 sequence (looked up): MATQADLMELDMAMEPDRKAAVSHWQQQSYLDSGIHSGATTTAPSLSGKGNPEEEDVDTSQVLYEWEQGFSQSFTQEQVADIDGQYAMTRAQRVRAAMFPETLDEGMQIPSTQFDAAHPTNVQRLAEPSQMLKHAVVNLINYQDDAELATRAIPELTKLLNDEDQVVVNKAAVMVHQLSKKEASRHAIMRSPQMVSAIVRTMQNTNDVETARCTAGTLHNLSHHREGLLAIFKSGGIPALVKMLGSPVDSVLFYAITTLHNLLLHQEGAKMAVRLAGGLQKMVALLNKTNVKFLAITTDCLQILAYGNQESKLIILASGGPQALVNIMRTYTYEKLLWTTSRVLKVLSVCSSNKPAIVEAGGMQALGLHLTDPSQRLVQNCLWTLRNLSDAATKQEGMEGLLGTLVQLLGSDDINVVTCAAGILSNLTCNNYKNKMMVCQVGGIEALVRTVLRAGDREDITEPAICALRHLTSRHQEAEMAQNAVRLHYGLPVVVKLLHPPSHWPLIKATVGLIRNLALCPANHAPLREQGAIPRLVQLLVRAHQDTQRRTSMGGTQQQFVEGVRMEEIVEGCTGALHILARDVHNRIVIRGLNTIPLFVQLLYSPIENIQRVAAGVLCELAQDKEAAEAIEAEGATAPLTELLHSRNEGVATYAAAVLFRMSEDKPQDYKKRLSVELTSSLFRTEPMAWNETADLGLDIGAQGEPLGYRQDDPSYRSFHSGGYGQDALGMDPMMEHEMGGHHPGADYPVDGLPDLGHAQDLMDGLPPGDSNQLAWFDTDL
Nature of the assay: cell-based or functional assay.

For assay [3], the target named is T3, full-length beta-Catenin (Uniprot ID P35222) (Homo sapiens (Human), UniProt P35222 1-781).
T3 construct: also called bCat
T3 sequence: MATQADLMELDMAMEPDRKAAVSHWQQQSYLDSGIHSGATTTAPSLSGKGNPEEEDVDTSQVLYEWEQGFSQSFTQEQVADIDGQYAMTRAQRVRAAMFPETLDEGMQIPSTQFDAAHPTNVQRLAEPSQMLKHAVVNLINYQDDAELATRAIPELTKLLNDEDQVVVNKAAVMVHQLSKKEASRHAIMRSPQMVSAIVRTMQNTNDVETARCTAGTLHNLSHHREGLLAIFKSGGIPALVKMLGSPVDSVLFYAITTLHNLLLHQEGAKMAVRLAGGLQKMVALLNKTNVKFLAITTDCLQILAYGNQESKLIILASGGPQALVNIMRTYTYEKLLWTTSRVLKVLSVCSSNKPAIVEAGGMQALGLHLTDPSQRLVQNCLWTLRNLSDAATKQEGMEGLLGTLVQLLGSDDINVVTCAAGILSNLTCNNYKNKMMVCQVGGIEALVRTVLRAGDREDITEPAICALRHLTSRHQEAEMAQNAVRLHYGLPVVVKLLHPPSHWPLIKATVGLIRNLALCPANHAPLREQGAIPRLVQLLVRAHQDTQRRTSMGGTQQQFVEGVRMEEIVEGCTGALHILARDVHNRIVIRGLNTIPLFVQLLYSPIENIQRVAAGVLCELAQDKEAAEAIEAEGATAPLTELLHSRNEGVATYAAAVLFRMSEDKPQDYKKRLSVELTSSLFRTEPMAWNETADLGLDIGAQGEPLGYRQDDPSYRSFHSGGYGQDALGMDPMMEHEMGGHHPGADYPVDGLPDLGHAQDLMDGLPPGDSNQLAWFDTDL
The experiment in a line: fluorescence polarization competition against 5FAM-TCF4(10-53) on full-length beta-catenin. The method, then:
as §1

The target in assay [4] is B-cat-Halo (UniProt P35222 1-781). Nature of the assay: cell-based or functional assay.

B1: I-1296 (peptide)
peptide: Ac-[αAllylPro]DA[B5(10)]NTAAFL[PyrS2]F[Bta]Q-NH2
modifications: staple 1-4, 4-11; not fully specified; printed as Ac-PL3-Asp-Ala-B5-Asn-Thr-Ala-Ala-Phe-Leu-PyrS2-Phe-BztA-Gln-NH2
notes: later eluting HPLC peak (staple isomer composition); also called Ac-PL3-Asp-Ala-B5-Asn-Thr-Ala-Ala-Phe-Leu-PyrS2-Phe-BztA-Gln-NH2
As for B1, the IC50 in assay [1] came out at 3.79 µM. With Ac-[αAllylPro]D[Cha][B5(16)]DEAAFN[S8]F[Bta]Q-NH2 (staple 1-4, 4-11; also: later-eluting staple isomer composition) [I-620], the “NanoBRET IC50” value in assay [2] was found to be 5.8 µM.

B2: I-1287 (peptide)
peptide: Ac-[αAllylPro]NA[B5(10)]DTAAFL[PyrS2]F[Bta]Q-NH2
modifications: staple 1-4, 4-11; not fully specified; printed as Ac-PL3-Asn-Ala-B5-Asp-Thr-Ala-Ala-Phe-Leu-PyrS2-Phe-BztA-Gln-NH2
notes: Stapled peptide
In assay [3], B2 registered an IC50 of 10 µM.

Regarding Ac-[αAllylPro]D[tBuAla][B5(5)]DDAAFN[S8][3Thi][Bta]Q-NH2 (staple 1-4, 4-11) [I-679], the “NanoBRET % inh @ 10 uM” value in assay [4] came out at 44.8%.

In general, IC50 refers to the concentration needed to halve the response being measured.
